Here are results for 11 molecules from patent US20250376519A1 (JIANGSU HENGRUI PHARMACEUTICALS, published 2025).

Usually EC50 stands for the concentration that produces a half-maximal response. The Kd is a measure of binding affinity in units of concentration. In general, koff refers to the first-order rate constant of dissociation. Broadly, the kon is the rate constant with which the complex forms.

Assay [1] deals with T1, human DLL3 on cells (human, UniProt Q9NYJ7 27-618).
T1 construct: Endogenous on H1184 and SHP77; Cell line is named under assay; also called H1184; DLL3/H82
T1 sequence: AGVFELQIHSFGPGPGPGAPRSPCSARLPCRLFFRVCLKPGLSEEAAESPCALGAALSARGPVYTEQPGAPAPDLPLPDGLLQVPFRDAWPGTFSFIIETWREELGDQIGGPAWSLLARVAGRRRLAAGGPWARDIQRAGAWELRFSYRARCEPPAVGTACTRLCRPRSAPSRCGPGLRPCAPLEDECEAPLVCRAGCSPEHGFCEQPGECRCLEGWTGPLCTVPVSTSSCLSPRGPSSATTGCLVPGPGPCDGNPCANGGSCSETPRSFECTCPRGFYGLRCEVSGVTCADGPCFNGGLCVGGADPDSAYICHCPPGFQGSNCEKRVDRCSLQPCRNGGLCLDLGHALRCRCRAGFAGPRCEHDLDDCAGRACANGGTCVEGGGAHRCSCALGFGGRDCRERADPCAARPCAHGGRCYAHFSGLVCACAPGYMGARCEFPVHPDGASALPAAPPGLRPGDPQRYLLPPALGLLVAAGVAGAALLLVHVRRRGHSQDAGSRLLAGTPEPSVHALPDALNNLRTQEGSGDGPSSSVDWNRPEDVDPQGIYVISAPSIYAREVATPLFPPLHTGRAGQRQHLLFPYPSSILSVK
Description: flow cytometry, H1184 cells. As to the method: (§1) The plates were centrifuged at 300 g for 5 min, and the supernatant was removed. Different concentrations of test antibodies were added at 100 μL/well. The plates were incubated in the dark in a refrigerator at 4° C. for 1 h. After 3 centrifugal washes at 300 g, working concentrations of APC anti-human IgG Fc (BioLegend, 410712) or PE F(ab′)2-goat anti-human IgG (invitrogen, H10104) were added. The plates were incubated in the dark in a refrigerator at 4° C. for 40 min. After 3 centrifugal washes at 300 g, the geometric mean fluorescence intensity was measured on an Invitrogen flow cytometer, and the EC50 values for the binding of the antibodies to DLL3-expressing cells were calculated.
(In general: A flow cytometer gives signals particle by particle.)

Assay [2] concerns the target T2, human DLL3 (ACRO, DLL3-H52H4) (human, UniProt Q9NYJ7 27-492).
T2 construct: Bought
T2 sequence: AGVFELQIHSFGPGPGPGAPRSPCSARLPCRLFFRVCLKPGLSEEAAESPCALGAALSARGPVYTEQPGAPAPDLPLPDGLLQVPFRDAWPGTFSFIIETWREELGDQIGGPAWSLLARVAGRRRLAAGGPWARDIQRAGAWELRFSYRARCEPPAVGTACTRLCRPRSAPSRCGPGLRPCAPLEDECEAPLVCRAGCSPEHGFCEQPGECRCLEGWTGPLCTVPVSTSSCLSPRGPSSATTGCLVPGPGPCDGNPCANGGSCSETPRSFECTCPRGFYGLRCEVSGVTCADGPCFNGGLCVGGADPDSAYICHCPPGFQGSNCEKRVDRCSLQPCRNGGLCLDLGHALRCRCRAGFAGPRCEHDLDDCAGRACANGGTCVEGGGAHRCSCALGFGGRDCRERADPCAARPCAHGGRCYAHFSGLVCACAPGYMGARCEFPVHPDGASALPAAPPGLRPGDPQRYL
Description: SPR Biacore 8K, Ab captured on Protein A. From the text: Test antibodies were affinity-captured with a Protein A biosensor chip (Cat. #29127556, Cytiva) for 18 seconds, and then the antigens human DLL3 (ACRO, DLL3-H52H4), cynomolgus monkey DLL3 (KACTUS, DLL-RM103), mouse DLL3 (KACTUS, DLL-MM103), human CD3D&3E (ACRO, CDD-H52W1), and monkey CD3D&3E (ACRO, CDD-C52W4) were allowed to flow through the surface of the chip for 180 seconds, followed by 600 seconds of dissociation. Reaction signals were detected in real time using a Biacore 8K (Cytiva) instrument to obtain association and dissociation curves. After the dissociation in each experimental cycle, the chip was washed and regenerated with a 10 mM glycine-hydrochloric acid solution (pH 1.5, Cat. #BR-1003-54, Cytiva). Data fitting was performed using a 1:1 Model.
(In general: SPR reads the build-up and loss of mass on a sensor chip optically.)

Assay [3] has as its target T1, human DLL3 on cells. Description: flow cytometry, DLL3/H82 cells. On the set-up: key to Emax: geometric mean fluorescence intensity (flow cytometry). As to the method: as §1

B1: hu6L2H2 (antibody, human IgG1, kappa, V domains shown)
VH: EVQLVQSGAEVKKPGASVKVSCKASGYTFTDYYMNWVRQAPGQRLEWMGIINPYSGVTIYNHKFKGRVTLTVDKSANTAYMELSSLRSEDTAVYYCARQDSLLDYAMDYWGQGTTVTVSS
VL: DIQMTQSPSSLSASVGDRVTITCHASQGISGNMGWLQQKPGKAPKGLIYHGANLEDGVPSRFSGSGSGADYTLTISSLQPEDFATYYCVQYAQFPYTFGGGTKVEIKR
In the case of B1, in the assay with human DLL3 on cells [1], the EC50 was determined as 0.06 nM and the Emax worked out at 2190. In assay [2], binding was put at a Kd of 1.64 nM, the koff is 0.00116 s⁻¹ and the kon came to 704000 M⁻¹ s⁻¹.

B2: hu6L2H6 (antibody, human IgG1, kappa, V domains shown)
VH: EVQLVQSGSELKKPGASVKVSCKASGYTFTDYYMNWVRQAPGQGLEWMGIINPYSGVTIYNHKFKGRFVLSVDKSSNTAYLQISSLKAEDTAVYYCARQDSLLDYAMDYWGQGTTVTVSS
VL: DIQMTQSPSSLSASVGDRVTITCHASQGISGNMGWLQQKPGKAPKGLIYHGANLEDGVPSRFSGSGSGADYTLTISSLQPEDFATYYCVQYAQFPYTFGGGTKVEIKR
In the assay with human DLL3 on cells [1], B2 displayed an EC50 of 0.05 nM and an Emax of 2420. Further, in assay [2], the Kd came out at 0.877 nM, the off-rate (koff) was found to be 0.000756 s⁻¹ and the kon is 863000 M⁻¹ s⁻¹.

B3: hu6L4H4 (antibody, human IgG1, kappa, V domains shown)
VH: EVQLVQSGAEVKKPGASVKVSCKASGYTFTDYYMNWVRQAPGKRLEWMGIINPYSGVTIYNHKFKGRVTLTVDKSANTAYMELSSLRSEDTAVYYCARQDSLLDYAMDYWGQGTTVTVSS
VL: DIQMTQSPSSLSASVGDRVTITCHASQGISGNMGWLQQKPGKAPKGLIYHGANLEDGVPSRFSGSGSGADYTLTISSLQPEDFADYYCVQYAQFPYTFGGGTKVEIKR
In the assay with human DLL3 on cells [1], B3 showed an EC50 of 0.06 nM and an Emax of 2310. In assay [2], this molecule came in with a Kd of 1.45 nM, a dissociation rate constant (koff) of 0.00108 s⁻¹ and a kon of 743000 M⁻¹ s⁻¹.

B4: hu6L2H12 (antibody, human IgG1, kappa, V domains shown)
VH: EVQLVQSGSELKKPGASVKVSCKASGYTFTDYYMNWVRQAPGQGLEWMGIINPYSGVTIYNHKFKGRFALSVDKSSNTAYLQISSLKAEDTAVYYCARQDSLLDYAMDYWGQGTTVTVSS
VL: DIQMTQSPSSLSASVGDRVTITCHASQGISGNMGWLQQKPGKAPKGLIYHGANLEDGVPSRFSGSGSGADYTLTISSLQPEDFATYYCVQYAQFPYTFGGGTKVEIKR
Take B4: in the assay with human DLL3 on cells [1], the EC50 was 0.1 nM and the Emax came to 2140. Also, in assay [2], the Kd was determined as 0.461 nM, the koff is 0.000913 s⁻¹ and the kon was found to be 1.98e+06 M⁻¹ s⁻¹.

B5: hu30L3H1 (antibody, human IgG1, kappa, V domains shown)
VH: EVQLVQSGAEVKKPGASVKVSCKASGYTFTDYYMNWVRQAPGQSLEWMGIINPYNGDTSYNQKFRGRVTITVDKSASTAYMELSSLRSEDTAVYYCARYHYGPHLEGYFDVWGQGTTVTVSS
VL: DIVMTQSPKSLAVSLGERATINCKASENVGYVSWYQQKPGQSPKLLIYGASNRYTGVPDRFSGSGSATDFTLTISSLQAEDVAVYHCGQSYSYPLTFGQGTKLEIKR
In assay [2], B5 had a Kd of 0.362 nM, a koff of 0.00059 s⁻¹ and a kon of 1.63e+06 M⁻¹ s⁻¹. Moreover, in the assay with human DLL3 on cells [3], the response was half-maximal at 0.51 nM (EC50) and the Emax was 5530.

B6: hu30L3H3 (antibody, human IgG1, kappa, V domains shown)
VH: EVRLVQSGAEVKKPGASVKVSCKASGYTFTDYYMNWVRQAPGQSLEWMGIINPYQGDTSYNQKFRGRVTLTVDKSASTAYMELSSLRSEDTAVYYCARYHYGPHLEGYFDVWGQGTTVTVSS
VL: DIVMTQSPKSLAVSLGERATINCKASENVGYVSWYQQKPGQSPKLLIYGASNRYTGVPDRFSGSGSATDFTLTISSLQAEDVAVYHCGQSYSYPLTFGQGTKLEIKR
In assay [2], B6 returned a Kd of 1.25 nM, a koff of 0.00131 s⁻¹ and a kon of 1.05e+06 M⁻¹ s⁻¹. In addition, in the assay with human DLL3 on cells [3], it took 0.43 nM to reach a half-maximal effect (EC50) and the Emax came to 5300.

B7: hu30L3H6 (antibody, human IgG1, kappa, V domains shown)
VH: EVRLVQSGAEVKKPGASVKVSCKASGYTFTDYYMNWVRQAPGQSLEWMGIINPYNVDTSYNQKFRGRVTLTVDKSASTAYMELSSLRSEDTAVYYCARYHYGPHLEGYFDVWGQGTTVTVSS
VL: DIVMTQSPKSLAVSLGERATINCKASENVGYVSWYQQKPGQSPKLLIYGASNRYTGVPDRFSGSGSATDFTLTISSLQAEDVAVYHCGQSYSYPLTFGQGTKLEIKR
In assay [2], B7 displayed a Kd of 0.939 nM, a koff of 0.000894 s⁻¹ and a kon of 952000 M⁻¹ s⁻¹. In the assay with human DLL3 on cells [3], this molecule registered an EC50 of 0.46 nM and an Emax of 5340.

B8: hu30L3H5 (antibody, human IgG1, kappa, V domains shown)
VH: EVRLVQSGAEVKKPGASVKVSCKASGYTFTDYYMNWVRQAPGQSLEWMGIINPYTGDTSYNQKFRGRVTLTVDKSASTAYMELSSLRSEDTAVYYCARYHYGPHLEGYFDVWGQGTTVTVSS
VL: DIVMTQSPKSLAVSLGERATINCKASENVGYVSWYQQKPGQSPKLLIYGASNRYTGVPDRFSGSGSATDFTLTISSLQAEDVAVYHCGQSYSYPLTFGQGTKLEIKR
In assay [2], B8 came in with a Kd of 0.735 nM, a koff of 0.00082 s⁻¹ and a kon of 1.12e+06 M⁻¹ s⁻¹. In the assay with human DLL3 on cells [3], this molecule yielded an EC50 of 0.43 nM and an Emax of 5250.

B9: hu30L3H7 (antibody, human IgG1, kappa)
heavy: not shown
light: DIVMTQSPKSLAVSLGERATINCKASENVGYVSWYQQKPGQSPKLLIYGASNRYTGVPDRFSGSGSATDFTLTISSLQAEDVAVYHCGQSYSYPLTFGQGTKLEIKRTVAAPSVFIFPPSDEQLKSGTASVVCLLNNFYPREAKVQWKVDNALQSGNSQESVTEQDSKDSTYSLSSTLTLSKADYEKHKVYACEVTHQGLSSPVTKSFNRGEC
In assay [2], B9 came in with a Kd of 0.815 nM, a koff of 0.000853 s⁻¹ and a kon of 1.05e+06 M⁻¹ s⁻¹. In the assay with human DLL3 on cells [3], this molecule came in with an EC50 of 0.43 nM and an Emax of 5450.

B10: hu30L3H4 (antibody, human IgG1, kappa, V domains shown)
VH: EVRLVQSGAEVKKPGASVKVSCKASGYTFTDYYMNWVRQAPGQSLEWMGIINPYSGDTSYNQKFRGRVTLTVDKSASTAYMELSSLRSEDTAVYYCARYHYGPHLEGYFDVWGQGTTVTVSS
VL: DIVMTQSPKSLAVSLGERATINCKASENVGYVSWYQQKPGQSPKLLIYGASNRYTGVPDRFSGSGSATDFTLTISSLQAEDVAVYHCGQSYSYPLTFGQGTKLEIKR
In assay [2], B10 had a Kd of 0.882 nM, a koff of 0.000956 s⁻¹ and a kon of 1.08e+06 M⁻¹ s⁻¹. Besides, in the assay with human DLL3 on cells [3], a half-maximal effect (EC50) was put at 0.43 nM and the Emax is 5340.

B11: hu30L3H2 (antibody, human IgG1, kappa)
heavy: not shown
light: DIVMTQSPKSLAVSLGERATINCKASENVGYVSWYQQKPGQSPKLLIYGASNRYTGVPDRFSGSGSATDFTLTISSLQAEDVAVYHCGQSYSYPLTFGQGTKLEIKRTVAAPSVFIFPPSDEQLKSGTASVVCLLNNFYPREAKVQWKVDNALQSGNSQESVTEQDSKDSTYSLSSTLTLSKADYEKHKVYACEVTHQGLSSPVTKSFNRGEC
B11: in assay [2], the Kd worked out at 0.891 nM, the koff worked out at 0.000762 s⁻¹ and the kon came to 855000 M⁻¹ s⁻¹. In the assay with human DLL3 on cells [3], this molecule came in with an EC50 of 0.44 nM and an Emax of 5390.
